Literature values, collected in patent US6194458A, “Benzamide potassium channel inhibitors” (Merck & Co., Inc., priority 1999, dated 2001).

Target: T1, Kv 1.3 channels (Homo sapiens, UniProt P22001)
T1 construct: expressed in transfected cells; host or cells: CHO cells
Conditions: blocker of Kv 1.3 channels; CHO cells transfected with Kv 1.3; stated in the method description

T1 sequence (P22001 whole entry): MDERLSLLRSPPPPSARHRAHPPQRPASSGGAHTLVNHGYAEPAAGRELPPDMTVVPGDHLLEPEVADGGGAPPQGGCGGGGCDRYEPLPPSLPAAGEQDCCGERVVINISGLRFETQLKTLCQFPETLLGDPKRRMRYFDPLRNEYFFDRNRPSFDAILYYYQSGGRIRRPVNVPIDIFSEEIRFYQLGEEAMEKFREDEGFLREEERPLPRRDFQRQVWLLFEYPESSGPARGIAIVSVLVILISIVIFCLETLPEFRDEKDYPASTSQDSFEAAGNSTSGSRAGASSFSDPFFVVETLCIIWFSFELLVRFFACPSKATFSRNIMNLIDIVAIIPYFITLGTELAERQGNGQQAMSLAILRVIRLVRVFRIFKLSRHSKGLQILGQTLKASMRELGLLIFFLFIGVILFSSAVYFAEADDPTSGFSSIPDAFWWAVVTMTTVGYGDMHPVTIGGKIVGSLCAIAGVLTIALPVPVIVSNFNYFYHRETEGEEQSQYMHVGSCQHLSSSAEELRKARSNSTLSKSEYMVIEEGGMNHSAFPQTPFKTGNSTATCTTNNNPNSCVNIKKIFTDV

## margatoxin (TIINVKCTSPKQCLPPCKAQFGQSAGAKCMNGKCKCYPH; UniProt P40755 1-39, looked up)
  IC50: 0.1 nM
